Tests used:
[1] = target: T1, M2 muscarinic acetylcholine receptor (Homo sapiens, UniProt P08172); experiment: radioligand binding, CHO membranes; settings: labelled compound; antagonist; […] °C, pH […]
T1 construct: gene CHRM2; full-length receptor stably expressed in CHO cells, crude membranes
T1 sequence (P08172 1-466): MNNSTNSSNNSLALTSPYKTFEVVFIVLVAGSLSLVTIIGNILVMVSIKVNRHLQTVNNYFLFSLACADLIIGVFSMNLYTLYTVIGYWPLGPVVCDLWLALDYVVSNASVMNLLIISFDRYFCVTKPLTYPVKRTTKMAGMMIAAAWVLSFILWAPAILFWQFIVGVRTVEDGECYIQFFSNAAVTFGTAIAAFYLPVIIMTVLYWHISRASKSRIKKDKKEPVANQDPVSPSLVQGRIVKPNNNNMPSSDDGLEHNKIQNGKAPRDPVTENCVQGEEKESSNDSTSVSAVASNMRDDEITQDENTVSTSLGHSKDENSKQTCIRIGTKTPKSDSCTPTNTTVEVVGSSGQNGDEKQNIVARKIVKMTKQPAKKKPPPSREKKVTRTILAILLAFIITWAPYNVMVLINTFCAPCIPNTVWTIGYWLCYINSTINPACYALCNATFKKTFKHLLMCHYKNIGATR

[2] = target: G_(q/11) G-proteins (Chinese hamster (endogenous in CHO))
[3] = target: Gi/o G-proteins (Chinese hamster (endogenous in CHO))
[4] = target: G_(s/olf) G-proteins (Chinese hamster (endogenous in CHO))
[5] = target: G-proteins (Chinese hamster (endogenous in CHO))

Row | Compound | radioligand binding, CHO membranes [1] | EMAX of carbachol-stimulated [35S]GTPγS binding to G (q/11) G-proteins via the receptor (scintillation proximity assay, CHO membranes, carbachol 0.1 µM to 1 mM) (fold increase of basal binding) [2] | EMAX of carbachol-stimulated [35S]GTPγS binding to Gi/o G-proteins via the receptor (scintillation proximity assay, CHO membranes, carbachol 0.1 µM to 1 mM) (fold increase of basal binding) [3] | EMAX of carbachol-stimulated [35S]GTPγS binding to G (s/olf) G-proteins via the receptor (scintillation proximity assay, CHO membranes, carbachol 0.1 µM to 1 mM) (fold increase of basal binding) [4] | fraction of low-affinity sites (f low) for carbachol in competition with 1 nM [3H]NMS, membranes of the newly prepared CHO cell line [5] [percent]
1 | C[N+]1(C)[C@@H]2C[C@@H](OC(=O)[C@H](CO)c3ccccc3)C[C@H]1[C@@H]1O[C@@H]12 [[3H]-N-methylscopolamine] | N-methylscopolamine binding was measured directly in saturation experiments using six concentrations |  |  |  | 
2 | human M1 muscarinic acetylcholine receptor (from UniProt P11229 1-460) |  | 3.9 | 2.01 | 1.92 | 
3 | human M2 muscarinic acetylcholine receptor (from UniProt P08172 1-466) |  | 1.63 | 3.44 | 1.93 | 
4 | human M3 muscarinic acetylcholine receptor (from UniProt P20309 1-590) |  | 3.31 | 2.16 | 2.16 | 
5 | human M4 muscarinic acetylcholine receptor (from UniProt P08173 1-479) |  | 1.59 | 3.15 | 2.18 | 
6 | wild-type human M1 muscarinic receptor (newly prepared CHO cell line) (from UniProt P11229 1-460) |  |  |  |  | 72
